T1: biotinylated human delta-like 1 (DLL1) (human, UniProt O00548 18-540, limits assumed, biotinylated (sites not given))
T1 sequence (looked up): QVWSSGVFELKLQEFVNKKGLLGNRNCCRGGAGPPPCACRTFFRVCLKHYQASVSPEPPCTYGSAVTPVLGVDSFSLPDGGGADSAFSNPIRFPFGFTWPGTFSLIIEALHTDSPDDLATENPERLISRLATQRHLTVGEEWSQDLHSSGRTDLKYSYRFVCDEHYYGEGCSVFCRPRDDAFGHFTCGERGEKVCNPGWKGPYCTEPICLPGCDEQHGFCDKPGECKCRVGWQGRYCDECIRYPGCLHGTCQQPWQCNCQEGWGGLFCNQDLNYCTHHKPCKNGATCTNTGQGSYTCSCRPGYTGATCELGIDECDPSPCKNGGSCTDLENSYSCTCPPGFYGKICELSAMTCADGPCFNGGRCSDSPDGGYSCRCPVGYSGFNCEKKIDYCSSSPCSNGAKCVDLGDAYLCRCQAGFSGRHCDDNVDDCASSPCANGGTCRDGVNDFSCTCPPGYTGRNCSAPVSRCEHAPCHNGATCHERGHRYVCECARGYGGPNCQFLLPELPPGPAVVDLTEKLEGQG

B1: JG1H7 (antibody, V domains shown)
VH: QVQLVQSGGGLIQPGGSLRLSCAASAFTVSNFYMTWVRQAPGKGLEWVSVIDSGGNTYYADSVRGRFTISRDNSKNTLFLQMNSLRAEDTAVYYCARDLGYYYAMDVWGQGTTVTVSS
VL: DIVMTQSPSSLSASVGDRVTITCRASQSISTSLNWYQQKPGKAPKLLIYAASSLQSGVPSRFSGSGSGTDFTLTISSLQPEDFATYYCQQSYSTPTFGQGTKLEIK
notes: captured by anti-human Fc in the BiaCore assay
B2: JG1C8 (antibody, V domains shown)
VH: EVQLVQSGAEVKKPGSSVKVSCKASGGTFSSYAISWVRQAPGQGLEWMGWISAYNGNTNYAQKLQGRVTMTTDTSTSTAYMELRSLRSDDTAVYYCARSRYDFWSGYYSGMDVWGQGTTVTVSS
VL: NFMLTQPRSVSGSPGQSVTISCTGTSSDVGGYHYVSWYQQHPGKAPKLIIYDVSRRPSGVPDRFSGSKSGNTASLTVSGLQAEDEADYYCSSYGGSNNFVFGTGTKLTVL
B3: JG1H11 (antibody, V domains shown)
VH: EVQLVESGGGVVQPGRSLRLSCAASGFTFSSYGMHWVRQAPGKGLEWVAVISYDGSNKYYADSVKGRFTISRDNSKNTLYLQMNSLRAEDTAVYYCAKDDWNYALDYWGQGTLVTVSS
VL: QPVLTQPASVSGSPGQSITISCTGTRSDVGGYSYVSWYQQHPGKAPKLIYDVTKRPSGVSNRFSGSKSGNTASLTISGLQAEDEADYYCSSYTSSSTYVFGTGTKVTVL
B4: JH1F4 (antibody, V domains shown)
VH: QVQLVQSGAEVKKPGASVKVSCKASGYTFTSYAMHWVRHAPGQRLEWMGWINAGNGNTKYSQKFQGRVTITRDTSASTAYMELSSLRSEDTAVYYCARDLDYYYGMDVWGQGTTVTVSS
VL: QPVLTQPPSASGTPGQRVTISCSGSSSNIGSNIVNWYQQLPGTAPKLLIYSNNRRPSGVPDRFSGSKSGSSASLAISGLQSEDEADYYCAAWDATLGGLYVFGTGTKVTVL
notes: also called JH-F4
B5: JG1B10 (antibody, V domains shown)
VH: EVQLVESGGGLVQPGGSLRLSCAASGSTFSSYGMHWVRQAPGKGLEWVAVIWYDGSNKYYADSVKGRFTISRDNSKNTLYLQMNSLRAEDTAVYYCARGYNHDYWGQGTLVTVSS
VL: LPVLTQPASVSGSPGQSITISCTGTSSDVGGYNYVSWYQQHPGKAPKLMIYDVSNRPSGVSNRFSGSKSGNTASLTISGLQAEDEADYYCSSYTSSSTYVFGIGTKLTVL
notes: also called B10JAG1
B6: JG1A7 (antibody, V domains shown)
VH: QVQLVESGGGLVKPGGSLRLSCAASGFTFSDYYMSWIRQAPGKGLEWVSYISSSGSTIYYADSVKGRFTISRDNAKNSLYLQMNSLRAEDTAVYYCARVNSGYDAVDYWGQGTLVTVSS
VL: QSALTQPPSVSGAPGQTVTISCTGSRSNIGTYDVHWYQQFAGSAPKLLIYHNNDRSSGVPDRFSGSKSGTSASLAITGLQAEDEAVYFCQSHDNVLGGVFGGGTKLTVL

Key:
[1] = target: T2, human JAG1 on cells (K562 cells; Calu-6 cells) (human, UniProt P78504 34-1218); experiment: flow cytometry on K562 cells, IgG titrated, PE anti-human IgG, median fluorescence
T2 construct: whole, on cells; Calu-6 are called JAG-1 expressing cells; also called JAG-1 expressing cells
Protocol: This example describes a cellular binding assay to determine the EC₅₀ for certain anti-JAG1 antibodies binding to K562 cells (ATCC CCL-243), where the concentration at which 50% binding saturation (EC₅₀) is reached. In this example, K562 cells were resuspended in FACS Buffer (2% Fetal Bovine Serum in PBS) at 1×10⁶ cells/ml. 50 μl (0.5×10⁵ cells) were aliquoted into the wells of a 96-well plate. Plated cells were spun down and the supernatant discarded. Cells were resuspended in serially diluted concentrations of each JAG1 IgG in 30 μl FACS Buffer done in triplicate. The antibodies and cells were incubated for 1 hr at 4° C. and then washed 2× with FACS Buffer. Cells were resuspended in 50 μl goat anti-human IgG (γ-chain specific)-PE-conjugated secondary antibody (Southern Biotech #2040-09) diluted 1:750 in FACS Buffer. Cells were further incubated in the dark for 30 min at 4° C. and then washed 1× with FACS Buffer. The cells were resuspended in a final volume of 30 μl FACS Buffer and analyzed using an Intellicyt Flow Cytometer. Median fluorescence in the FL-2H channel was determined using FlowJo software and EC₅₀ value was determined by a variable slope non-linear regression using ForeCyte software.

[2] = target: T3, Recombinant human JAG1/His (human, UniProt P78504 34-1046, limits assumed); experiment: SPR (BiaCore), antibody captured on anti-human Fc CM5 chip, JAG1/His as analyte, 1:1 Langmuir fit
T3 construct: Analyte of the BiaCore assay; also called human JAW [sic]; not shown: His tag
Protocol: The binding affinity of antibody JG1H7 for human JAG1 was tested using a BiaCore assay. Specifically, anti-human Fc antibody (GE, BR-1008-39) was immobilized on a CM5 sensor chip to approximately 700 RU using standard NHS/EDC coupling methodology. Antibodies (about 10 μg/ml) were captured for 60 s at a flow rate 10 μl/min. Recombinant human JAG1/His was serially diluted in running buffer (HBS-EP). All measurements were conducted with a flow rate of 30 μL/min Surfaces were regenerated with 3M MgCl₂ for 60 s. A 1:1 (Langmuir) binding model was used to fit the data.

[3] = target: T1, biotinylated human delta-like 1 (DLL1); experiment: capture ELISA: JG1H7 IgG captured on anti-human kappa, serially diluted biotinylated DLL1, neutravidin-AP, PNPP, absorbance
Protocol: (§1) Finally, an ELISA assay was carried out to determine antibody cross-reactivity to delta-like 1 (DLL1) and delta-like 2 (DLL2). One ELISA plate was coated with anti-human lambda and another ELISA plate was coated with anti-human kappa overnight at 4° C. The next morning each plate was blocked with a 1:1 mixture of casein:Super Block for 2 hours at room temperature. The B10 IgG was diluted to 0.3 μg/ml in block and added to the anti-human lambda coated wells, while the JG1H7 IgG was diluted to 0.3 μg/ml in block and added to the anti-human kappa coated wells and incubated at room temperature for 3 hours. As a control, other wells were treated with only block. After washing, serially-diluted biotinylated antigen (JAG1, DLL1, DLL2) was added to a column with captured antibody and a control column with no antibody, and incubated 1 hour at room temperature. After washing, neutravidin-AP was added, incubated for 20 min at room temperature, the plate washed and developed with 1-step PNPP, and the plate analyzed in a plate reader.

human JAG2-Fc = target: T4, human JAG2-Fc (human, UniProt Q9Y219 24-1080, limits assumed); experiment: ELISA: plate coated with human JAG2-Fc, serially diluted IgG, labeled goat anti-human Fd antibody, absorbance
T4 construct: not shown: Fc
Protocol: An ELISA assay was also carried out to determine the ability of the identified antibodies to bind to human JAG2. A 96-well ELISA plate was coated with human JAG2-Fc overnight. The next morning the plate was blocked with casein solution for 1 hour, followed by addition of serially diluted JG1H7 and JG1B10 IgG antibodies. As a control, antibodies were added to wells that were not coated with JAG2-Fc. After incubating for an hour, the plate was washed and labeled goat anti-human FD antibody was added for 30 minutes. The plate was washed, developed with substrate and the absorbance in each well measured on a spectrophotometer.

[4] = target: T2, human JAG1 on cells (K562 cells; Calu-6 …); experiment: cell-based or functional assay
[5] = target: T1, biotinylated human delta-like 1 (DLL1); experiment: capture ELISA: B10 IgG captured on anti-human lambda, serially diluted biotinylated DLL1, neutravidin-AP, PNPP, absorbance
Protocol: as §1

T2 sequence (P78504 34-1218): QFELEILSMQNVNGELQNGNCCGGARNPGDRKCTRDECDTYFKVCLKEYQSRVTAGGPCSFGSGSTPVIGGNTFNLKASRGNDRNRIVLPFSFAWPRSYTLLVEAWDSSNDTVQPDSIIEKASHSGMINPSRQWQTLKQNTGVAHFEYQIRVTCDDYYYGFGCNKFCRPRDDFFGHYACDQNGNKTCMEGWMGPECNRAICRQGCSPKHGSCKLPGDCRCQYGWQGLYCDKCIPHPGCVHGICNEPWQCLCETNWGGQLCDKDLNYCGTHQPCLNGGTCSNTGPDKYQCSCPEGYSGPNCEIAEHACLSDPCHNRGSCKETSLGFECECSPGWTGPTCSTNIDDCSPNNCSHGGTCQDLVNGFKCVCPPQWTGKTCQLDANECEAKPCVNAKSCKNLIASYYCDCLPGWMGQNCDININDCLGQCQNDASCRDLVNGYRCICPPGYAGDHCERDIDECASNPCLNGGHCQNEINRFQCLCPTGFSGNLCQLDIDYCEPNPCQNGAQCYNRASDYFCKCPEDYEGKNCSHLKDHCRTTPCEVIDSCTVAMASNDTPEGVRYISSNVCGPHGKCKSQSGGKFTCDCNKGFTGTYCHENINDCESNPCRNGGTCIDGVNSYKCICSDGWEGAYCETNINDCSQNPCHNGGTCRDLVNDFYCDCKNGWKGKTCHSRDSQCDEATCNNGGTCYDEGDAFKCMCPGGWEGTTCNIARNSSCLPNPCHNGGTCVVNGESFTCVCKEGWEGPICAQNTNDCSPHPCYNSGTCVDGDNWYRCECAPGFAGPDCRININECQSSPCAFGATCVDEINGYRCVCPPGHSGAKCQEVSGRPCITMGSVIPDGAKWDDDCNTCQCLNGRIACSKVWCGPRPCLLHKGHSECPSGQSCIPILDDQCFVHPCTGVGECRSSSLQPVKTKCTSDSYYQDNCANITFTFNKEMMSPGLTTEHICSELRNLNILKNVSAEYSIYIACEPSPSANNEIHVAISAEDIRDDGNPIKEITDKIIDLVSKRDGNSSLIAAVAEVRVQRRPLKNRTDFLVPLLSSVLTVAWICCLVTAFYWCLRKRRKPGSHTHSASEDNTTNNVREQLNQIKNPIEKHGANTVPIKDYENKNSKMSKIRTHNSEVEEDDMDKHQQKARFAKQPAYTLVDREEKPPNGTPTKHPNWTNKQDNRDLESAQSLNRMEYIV
T4 sequence (Q9Y219 24-1080 limits assumed): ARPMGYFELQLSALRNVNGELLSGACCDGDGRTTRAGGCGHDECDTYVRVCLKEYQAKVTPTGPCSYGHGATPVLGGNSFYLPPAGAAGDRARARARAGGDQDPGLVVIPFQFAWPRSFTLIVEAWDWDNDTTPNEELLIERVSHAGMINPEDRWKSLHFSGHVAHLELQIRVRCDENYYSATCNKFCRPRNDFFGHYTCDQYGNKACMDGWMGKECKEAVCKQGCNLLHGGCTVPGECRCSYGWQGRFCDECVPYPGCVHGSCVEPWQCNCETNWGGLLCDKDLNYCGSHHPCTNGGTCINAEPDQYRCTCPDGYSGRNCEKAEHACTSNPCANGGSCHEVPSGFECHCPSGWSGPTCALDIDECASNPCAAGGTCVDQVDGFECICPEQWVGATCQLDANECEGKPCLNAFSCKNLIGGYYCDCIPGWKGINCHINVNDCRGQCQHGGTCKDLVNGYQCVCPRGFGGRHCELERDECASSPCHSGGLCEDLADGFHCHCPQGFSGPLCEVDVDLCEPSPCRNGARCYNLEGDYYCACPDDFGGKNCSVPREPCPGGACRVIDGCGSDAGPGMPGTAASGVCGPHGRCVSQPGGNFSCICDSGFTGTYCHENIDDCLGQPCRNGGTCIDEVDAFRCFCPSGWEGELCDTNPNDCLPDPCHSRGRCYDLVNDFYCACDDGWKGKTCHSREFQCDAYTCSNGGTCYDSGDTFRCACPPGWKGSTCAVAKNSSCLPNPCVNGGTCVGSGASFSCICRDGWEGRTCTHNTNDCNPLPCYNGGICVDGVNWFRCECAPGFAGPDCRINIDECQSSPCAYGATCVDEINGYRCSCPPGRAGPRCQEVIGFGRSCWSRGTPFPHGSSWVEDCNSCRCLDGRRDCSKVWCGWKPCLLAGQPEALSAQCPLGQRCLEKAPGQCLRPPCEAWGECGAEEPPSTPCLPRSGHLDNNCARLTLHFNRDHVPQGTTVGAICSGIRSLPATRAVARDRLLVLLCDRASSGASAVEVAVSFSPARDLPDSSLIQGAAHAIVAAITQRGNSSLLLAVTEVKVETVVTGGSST

Binder	EC50 [1]	IC50 (nM) of killing of Calu-6 cells by the antibody pre-complexed with Protein G-DM1 (1:4), Cell Titer Glo after 6 days [4]	also measured
B1	0.016 µM	3.89 nM	Ka [2]: 4.8e+06 M⁻¹; Kd [2]: 0.208 µM; koff [2]: 0.0411 s⁻¹; kon [2]: 197000 M⁻¹ s⁻¹; binding result [3]: no binding; EC50 (read off the curve) (human JAG2-Fc): ~0.1 mg/L
B2	0.016 µM	87.3 nM	
B3	0.027 µM	26.5 nM	
B4	0.097 µM		
B5	0.032 µM	1.35 nM	binding result [5]: no binding
B6	< 0.001 µM		

From patent US20160257759A1 (SORRENTO THERAPEUTICS, published 2016)
